Laboratory results taken from paper PMC2831815.

Substrate: Nc1ncnc2c1ncn2[C@@H]1O[C@H](COP(=O)(O)OP(=O)(O)OP(=O)(O)O)[C@@H](O)[C@H]1O
Experiment: purified protein
Details: 10 mM MgCl2, pH 7.6, 37 °C, ATP 0.025-3.5 mM

Protein	Km [µM]	Km (Discussion prints 0.96 mM instead) [µM]
TraE (Aeromonas veronii) (protein) MKQIKQTPLKKGRTEPVMRMYPDYQFHVSDNVVFTADKKALASIAIEGMPFESISDGVLESDFDSIKNFLVNMGKDGDVYLWTHLVKEKVSLDEEYHFKSDFLNRFSNQYTELFRGSNFFKSTYYLTFGIKYSNISEAIERLDEVIHQAKAVLGKYGAHVLTVDQNRVSGVADYLHLLLNKSHAEIPLSINPISSSIADSEWYFGYDSLELRNNEAEEKKFATNYVVKDFPMFTELGQWDFLLRLPYEFIITQSFIYEAPTKTLKEIDAQLNKMGSAGDAAENQQDELVLGKEVVTSGITLFGSYHCVLTVFGRTADEARKNGIKVSSEFVSAGKGFRFIRTNSAGAHCYFSHMPMNKIRPLATRRTITNLACTFSLHNYSHGKKRGNPIGDGTAIMPLKTVADGLYWFNTHYSEPGRDVRGQKIAGHAMILGATGAGKTTFEGAAAGFLQRFDPYMFVVDFNRSTELFVRAYGGSYFTLKEGEYTGLNPFQICDLDDELAPRLVQFLKSYVKTLAYDQSGKPCSDAQAEELAKAVDATMLLPREMRRLSTLLSRISDPELKIRLAKWCGAGQYAWAVDSPRNTFNPMDFKKVGFDTTVILEKTKDGVHPACEPLLAILFFYKSLMQREGQLMLSIIEEFWMPANFPLTQAMIKSALKAGRMKGEMMWLTSQSPEDAIYCEIFPALVQQTATKILLPNPDADLEGYKKIGLTVKEFDRLKKLGKESRTMLIKQSGSSCFAKMDLYGFDDFLPIISGSMEGITLCEKVRAELGTDNPDIWIPEFLKQLREE	550	
TraK (Aeromonas veronii) (protein) MKNKAGFIGFLLFVFALCSVGSLYLGGYMLLKKSGVDMSALSIHTFFDVNRDLGGDPAFKKIIAWGWIGFAIPYAIFLFFVGVMLVGLMPKKVIYGDGRLATPMDLARSGFFPKKGDKHKQPPILIGKMFKGRFKNSYIYFYGQQFLILYAPTRSGKGVGIVIPNCVNYPESIVVLDIKLENFFLSAGYRKEQGQECFLFSPDGFADNLDAARRGEIKSHRFNPLDYVSRSPLQRESDLKKIAAILYPTSGGENDTWNESASSLWIGLALYLLDMEKVEPKTKVAVSQIIKISVPGSGDPLEKWMELTIKAKSDILGDDTKQYFRKFMSAADRTRASILVNFNNGVAVFSNPITAAATDSSDFDLRDLRKKKMSVYLGLSPNSLVTHAKLVNLFFSLLVNENTKELPENNPELKYQCLLILDEFTSMGRVEIIQKAVGFTAGYNIRFMFILQNKGQLEDDKMYGKEGAETFIENTGVELYYPPKSVNDTAKAISEKIGVRDEKVSSISRSSQSGKTSRSKSTSTEKRAVLLPDEIVSLRDHKNKGGNMAVREIILSDFCRPFIANKIVYFEEPIFMERVNYARKNPIEIPFLFNEDERKTFTCDSISLGSVMKKPDLDNHDQADKSE		920
